# According to article PMC7793260, “MreC and MreD balance the interaction between the elongasome proteins PBP2 and RodA” (PLoS Genetics, 2020):
# T1: mKO-PBP2^L61R (E. coli, UniProt P0AD65 1-633, L61R)
# T1 construct: PBP2 of E. coli with L61R (hyperactive variant); made from pWA004 by mutagenesis PCR; also called hyperactive PBP2^L61R; source: E. coli LMC500, expressed from plasmid (15 uM IPTG), in fixed cells; not shown: mKO, N-terminal, kept
# T1 sequence (looked up): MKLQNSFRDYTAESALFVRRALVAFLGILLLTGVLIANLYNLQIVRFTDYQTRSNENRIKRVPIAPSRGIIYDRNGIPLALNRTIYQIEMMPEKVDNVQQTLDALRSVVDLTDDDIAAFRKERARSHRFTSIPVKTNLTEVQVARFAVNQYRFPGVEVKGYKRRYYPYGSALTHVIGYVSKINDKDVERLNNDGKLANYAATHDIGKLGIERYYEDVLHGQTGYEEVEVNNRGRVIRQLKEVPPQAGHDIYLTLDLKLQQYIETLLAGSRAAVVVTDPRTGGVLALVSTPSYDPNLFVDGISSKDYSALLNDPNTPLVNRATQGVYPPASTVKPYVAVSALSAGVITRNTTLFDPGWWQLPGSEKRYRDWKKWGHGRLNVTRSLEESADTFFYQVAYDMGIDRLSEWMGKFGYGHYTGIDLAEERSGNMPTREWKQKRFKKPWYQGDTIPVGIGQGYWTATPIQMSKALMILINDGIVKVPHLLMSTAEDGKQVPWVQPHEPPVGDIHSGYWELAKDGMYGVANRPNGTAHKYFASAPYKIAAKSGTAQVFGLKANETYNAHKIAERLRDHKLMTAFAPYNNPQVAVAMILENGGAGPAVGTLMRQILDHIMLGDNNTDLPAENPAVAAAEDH
# T2: PBP2 (wild type), fused to mKO or to mCherry (E. coli, UniProt P0AD65 1-633)
# T2 construct: PBP2, peptidoglycan transpeptidase of the E. coli elongasome, wild type; mKO-PBP2 in all others; also called mKO-PBP2^WT; mKO-PBP2; source: E. coli LMC500, expressed from plasmid (15 uM IPTG), in fixed cells; not shown: mKO (donor construct, pWA004) or mCherry (acceptor construct), N-terminal, kept
# T2 sequence (looked up): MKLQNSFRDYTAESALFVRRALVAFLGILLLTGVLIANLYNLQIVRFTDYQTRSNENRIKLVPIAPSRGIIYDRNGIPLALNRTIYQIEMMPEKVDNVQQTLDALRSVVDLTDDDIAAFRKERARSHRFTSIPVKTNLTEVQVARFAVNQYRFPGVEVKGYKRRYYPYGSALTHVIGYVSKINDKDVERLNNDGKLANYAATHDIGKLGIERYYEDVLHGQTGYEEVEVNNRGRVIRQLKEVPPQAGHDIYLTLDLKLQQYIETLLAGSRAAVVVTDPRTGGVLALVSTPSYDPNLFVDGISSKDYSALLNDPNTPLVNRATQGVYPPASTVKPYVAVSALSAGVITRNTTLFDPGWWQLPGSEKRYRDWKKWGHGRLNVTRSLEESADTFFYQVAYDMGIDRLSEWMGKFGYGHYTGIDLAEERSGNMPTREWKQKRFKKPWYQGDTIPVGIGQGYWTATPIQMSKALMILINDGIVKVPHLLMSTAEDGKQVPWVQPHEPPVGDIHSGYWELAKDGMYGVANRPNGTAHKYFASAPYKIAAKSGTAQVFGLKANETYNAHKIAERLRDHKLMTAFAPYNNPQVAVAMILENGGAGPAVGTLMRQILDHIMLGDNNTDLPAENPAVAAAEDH
# T3: mKO-^MalF37PBP2 (E. coli, UniProt P02916 1-37; P0AD65 46-633)
# T3 construct: MalF of E. coli, the first 37 residues (cytoplasmic N-terminus and transmembrane helix), amplified from the MG1655 genome; PBP2 of E. coli excluding the first 45 residues (NT and TMH removed, periplasmic domain kept); also called PBP2 with the NT and TMH of MalF; source: E. coli LMC500, expressed from plasmid (15 uM IPTG), in fixed cells; not shown: mKO, N-terminal, kept
# T3 chain (looked up): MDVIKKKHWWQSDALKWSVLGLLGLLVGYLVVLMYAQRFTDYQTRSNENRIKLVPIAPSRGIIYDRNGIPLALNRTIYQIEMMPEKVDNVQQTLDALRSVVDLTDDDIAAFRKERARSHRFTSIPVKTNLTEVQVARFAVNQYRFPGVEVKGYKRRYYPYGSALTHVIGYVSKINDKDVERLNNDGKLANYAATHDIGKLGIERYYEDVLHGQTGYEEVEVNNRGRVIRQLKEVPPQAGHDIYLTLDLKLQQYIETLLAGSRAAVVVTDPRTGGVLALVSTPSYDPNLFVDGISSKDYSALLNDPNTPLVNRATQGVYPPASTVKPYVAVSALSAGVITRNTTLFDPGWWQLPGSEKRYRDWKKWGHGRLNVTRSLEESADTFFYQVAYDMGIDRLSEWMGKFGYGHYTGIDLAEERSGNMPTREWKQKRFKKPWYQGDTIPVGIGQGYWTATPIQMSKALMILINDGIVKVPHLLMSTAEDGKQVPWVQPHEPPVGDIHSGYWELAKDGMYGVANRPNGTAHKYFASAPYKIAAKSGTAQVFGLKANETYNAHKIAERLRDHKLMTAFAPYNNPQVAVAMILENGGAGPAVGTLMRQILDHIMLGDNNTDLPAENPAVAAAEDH
# B1: RodA (wild type), fused to mCherry or to mKO (enzyme, E. coli, UniProt P0ABG7 1-370, looked up)
# chain: MTDNPNKKTFWDKVHLDPTMLLILLALLVYSALVIWSASGQDIGMMERKIGQIAMGLVIMVVMAQIPPRVYEGWAPYLYIICIILLVAVDAFGAISKGAQRWLDLGIVRFQPSEIAKIAVPLMVARFINRDVCPPSLKNTGIALVLIFMPTLLVAAQPDLGTSILVALSGLFVLFLSGLSWRLIGVAVVLVAAFIPILWFFLMHDYQRQRVMMLLDPESDPLGAGYHIIQSKIAIGSGGLRGKGWLHGTQSQLEFLPERHTDFIFAVLAEELGLVGILILLALYILLIMRGLWIAARAQTTFGRVMAGGLMLILFVYVFVNIGMVSGILPVVGVPLPLVSYGGSALIVLMAGFGIVMSIHTHRKMLSKSV
# notes: RodA, peptidoglycan glycosyltransferase of the E. coli elongasome; wild-type rodA gene; mCh-RodA in all others; also called mCh-RodA; mKO-RodA; source: E. coli LMC500, expressed from plasmid (15 uM IPTG), in fixed cells; not shown: mCherry (acceptor construct, pSAV047-RodA) or mKO (donor construct, pXL56), N-terminal, kept
# Tests used:
# Conditions in all cases: partners not purified
# [1] = molecular target: T1, mKO-PBP2^L61R; experiment: FRET or BRET; as the two-plasmid FRET, cells treated with mecillinam (2 mg/L) for two mass doublings
# [2] = molecular target: T2, PBP2 (wild type), fused to mKO or to …; experiment: FRET or BRET; two-plasmid spectral FRET in E. coli LMC500 cells; mCherry fusion as acceptor, mKO fusion as donor; Gb4 medium, steady state at 28 C, 15 uM IPTG for two mass doublings, FAGA-fixed; acceptor FRET efficiency (EfA) by spectral unmixing
# [3] = molecular target: T3, mKO-^MalF37PBP2; experiment: as above
# [4] = molecular target: T1, mKO-PBP2^L61R; experiment: as above
binder,measurement,setting,value
B1,EfA (acceptor FRET efficiency),[1],6.3%
same,EfA (acceptor FRET efficiency),[2],12.7%
same,EfA (acceptor FRET efficiency),[3],8.2%
same,EfA (acceptor FRET efficiency),[4],10.8%
